Laboratory results reported in patent US7867500B2, “Cofactor that modulates steroid receptor activities” (The United States of America as represented by the …, priority 2004, dated 2011).

Molecular target: T1, GR (Rattus norvegicus, UniProt P06536)
T1 construct: expressed in transfected cells; host or cells: Cos-7
T1 sequence (P06536 1-795): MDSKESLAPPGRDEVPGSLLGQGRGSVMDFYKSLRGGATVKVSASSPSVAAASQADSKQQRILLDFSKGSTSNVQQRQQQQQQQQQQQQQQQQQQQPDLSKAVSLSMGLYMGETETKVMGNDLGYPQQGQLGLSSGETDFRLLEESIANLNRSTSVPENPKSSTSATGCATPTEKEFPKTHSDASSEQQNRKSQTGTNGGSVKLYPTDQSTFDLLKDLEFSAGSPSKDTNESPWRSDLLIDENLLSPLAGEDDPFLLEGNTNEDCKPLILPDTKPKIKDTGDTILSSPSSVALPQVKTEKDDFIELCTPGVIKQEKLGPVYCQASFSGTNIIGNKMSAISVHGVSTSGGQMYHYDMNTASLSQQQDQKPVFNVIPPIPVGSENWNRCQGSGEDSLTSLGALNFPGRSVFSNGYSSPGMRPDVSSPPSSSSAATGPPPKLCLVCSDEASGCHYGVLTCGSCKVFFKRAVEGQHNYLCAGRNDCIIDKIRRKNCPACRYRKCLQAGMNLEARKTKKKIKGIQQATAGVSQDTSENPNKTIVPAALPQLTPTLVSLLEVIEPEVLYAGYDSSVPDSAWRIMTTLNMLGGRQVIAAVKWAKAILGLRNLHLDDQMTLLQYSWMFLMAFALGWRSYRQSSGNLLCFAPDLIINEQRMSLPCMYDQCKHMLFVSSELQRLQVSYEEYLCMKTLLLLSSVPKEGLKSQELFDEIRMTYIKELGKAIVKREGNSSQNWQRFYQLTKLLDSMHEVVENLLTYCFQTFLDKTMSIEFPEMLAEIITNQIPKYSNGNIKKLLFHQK
T1 sequence (Q6EMB2 5-1281 A149V/F1267S partner limits assumed): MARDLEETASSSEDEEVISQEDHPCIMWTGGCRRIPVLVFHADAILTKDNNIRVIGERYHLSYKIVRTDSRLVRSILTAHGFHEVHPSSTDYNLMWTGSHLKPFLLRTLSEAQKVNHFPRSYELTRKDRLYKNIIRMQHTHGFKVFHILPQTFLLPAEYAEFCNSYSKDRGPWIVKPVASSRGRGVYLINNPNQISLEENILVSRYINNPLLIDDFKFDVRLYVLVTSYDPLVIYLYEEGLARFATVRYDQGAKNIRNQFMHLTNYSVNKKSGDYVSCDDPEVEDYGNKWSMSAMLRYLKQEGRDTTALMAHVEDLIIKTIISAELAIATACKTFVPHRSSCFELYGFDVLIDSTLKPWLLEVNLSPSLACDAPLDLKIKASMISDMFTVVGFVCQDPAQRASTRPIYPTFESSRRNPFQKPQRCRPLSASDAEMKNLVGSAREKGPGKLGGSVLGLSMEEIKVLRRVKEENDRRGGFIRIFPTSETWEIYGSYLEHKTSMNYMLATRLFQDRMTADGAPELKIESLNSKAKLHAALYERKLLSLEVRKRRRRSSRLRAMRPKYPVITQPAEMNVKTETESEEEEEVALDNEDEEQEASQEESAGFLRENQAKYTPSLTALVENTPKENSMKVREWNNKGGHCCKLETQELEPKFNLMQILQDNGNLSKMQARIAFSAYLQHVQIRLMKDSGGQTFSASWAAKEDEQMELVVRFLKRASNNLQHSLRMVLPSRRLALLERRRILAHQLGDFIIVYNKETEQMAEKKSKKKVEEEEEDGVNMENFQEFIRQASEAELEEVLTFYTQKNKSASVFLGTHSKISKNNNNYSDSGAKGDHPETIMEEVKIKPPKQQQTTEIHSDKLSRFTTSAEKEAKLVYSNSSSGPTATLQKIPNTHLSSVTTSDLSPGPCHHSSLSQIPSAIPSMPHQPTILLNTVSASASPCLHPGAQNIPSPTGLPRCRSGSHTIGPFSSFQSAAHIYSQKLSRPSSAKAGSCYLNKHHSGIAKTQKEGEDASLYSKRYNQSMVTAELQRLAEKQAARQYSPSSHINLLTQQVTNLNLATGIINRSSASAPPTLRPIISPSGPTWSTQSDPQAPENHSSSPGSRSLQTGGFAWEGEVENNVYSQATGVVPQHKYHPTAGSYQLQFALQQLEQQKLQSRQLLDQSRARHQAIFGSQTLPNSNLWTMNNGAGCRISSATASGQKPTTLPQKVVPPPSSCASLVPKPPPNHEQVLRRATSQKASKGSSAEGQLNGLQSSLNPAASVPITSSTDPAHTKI
Experiment: Whole cell co-immunoprecipitation in Cos-7 cells: GR
Assay type: binding
Settings: EtOH ± 1 μM Dex, 2 hr
Protocol: FIG. 7C1-3 illustrate whole cell co-immunoprecipitation of STAMP, GR, and TIF2/GRIP1. Cos-7 cells that had been co-transfected with Flag/STAMP (or Flag itself), HA/GRIP1, and GR plasmids (10 μg of each/150 mm dish) for 48 hr were treated for 2 hr with EtOH±1 μM Dex before being lysed as described in Example 1. Lysate was either analyzed on SDS-PAGE gels or treated with anti-Flag antibody to immunoprecipitate Flag/STAMP. The pellets were separated on SDS-PAGE gels and Western blotted with anti-Flag (FIG. 7C1), anti-HA (FIG. 7C2), or anti-GR antibodies (FIG. 7C3). In each panel, lane 1=5.7% of input lysate, lane 2=IP pellet of Flag/STAMP, HA/GRIP1, and GR+EtOH, lane 3=IP pellet of Flag/STAMP, HA/GRIP1, and GR+Dex, and lane 4=control IP pellet of Flag, HA/GRIP1, and GR+EtOH. Similar results were obtained in a second experiment.
Immunoprecipitations were conducted as generally described in Wang et al. (2004) Mol. Endocrinol. 18: 1476-95, with slight modifications. The day before transfection, Cos-7 cells were seeded into 150 mm dishes at 200,000 cells per dish containing 20 ml of media. On the next day, about 30 μg of DNA/dish was transfected with 60 μl of FuGene reagent. […]

B1: STAMP: SRC-1 and TIF2 Associated Modulatory Protein, 1277 amino acid human polypeptide, expressed from transfected plasmid (protein)
chain: T1 sequence (Q6EMB2 5-1281 A149V/F1267S partner limits assumed)
co-immunoprecipitation of GR with Flag-STAMP by anti-Flag antibody: co-immunoprecipitated
